The Km is the substrate concentration at which the rate is half of its maximum.

Common to all, as to settings: Pseudomonas putida
Substrate in data set [1]: N[C@@H](Cc1c[nH]cn1)C(=O)O
The experiment in a line: (§1) The kinetic constant with the compound as substrate of S143A mutant enzyme was determined.

Substrate in data set [2]: NC(Cc1[nH]cnc1[N+](=O)[O-])C(=O)O
The data set is described as §1.

Compound in data set [3]: NC(Cc1[nH]cnc1[N+](=O)[O-])C(=O)O
The data set can be described thus: The kinetic constant with the compound as substrate of HAL mutant S143G was determined using L-hisdine as competitive inhibitor.

Substrate in data set [4]: N[C@@H](Cc1c[nH]cn1)C(=O)O
The data set can be described thus: (§2) The kinetic constant with the compound as substrate of S143T mutant enzyme was determined.

Substrate in data set [5]: NC(Cc1[nH]cnc1[N+](=O)[O-])C(=O)O
Described as §2.

Compound in data set [6]: NC(Cc1[nH]cnc1[N+](=O)[O-])C(=O)O
The data set can be described thus: The kinetic constant with the compound as substrate of wild-type Pseudomonas ATCC 11299b was determined using L-hisdine as competitive inhibitor.

Substrate in data set [7]: N[C@@H](Cc1c[nH]cn1)C(=O)O
The experiment in a line: (§3) The kinetic constant with the compound as substrate of recombinant wild-type HAL enzyme was determined.

Substrate in data set [8]: NC(Cc1[nH]cnc1[N+](=O)[O-])C(=O)O
Described as §3.

Substrate in data set [9]: N[C@@H](Cc1c[nH]cn1)C(=O)O
The data set can be described thus: (§4) The kinetic constant with the compound as substrate of S143G mutant enzyme was determined.

Substrate in data set [10]: NC(Cc1[nH]cnc1[N+](=O)[O-])C(=O)O
The description is as §4.

Compound in data set [11]: NC(Cc1[nH]cnc1[N+](=O)[O-])C(=O)O
The data set can be described thus: The kinetic constant with the compound as substrate of recombinant wild-type Escherichia coli BL21 was determined using L-hisdine as competitive inhibitor.

B1: Histidine ammonia-lyase (Homo sapiens), P42357 (protein)
chain: MPRYTVHVRGEWLAVPCQDAQLTVGWLGREAVRRYIKNKPDNGGFTSVDDAHFLVRRCKGLGLLDNEDRLEVALENNEFVEVVIEGDAMSPDFIPSQPEGVYLYSKYREPEKYIELDGDRLTTEDLVNLGKGRYKIKLTPTAEKRVQKSREVIDSIIKEKTVVYGITTGFGKFARTVIPINKLQELQVNLVRSHSSGVGKPLSPERCRMLLALRINVLAKGYSGISLETLKQVIEMFNASCLPYVPEKGTVGASGDLAPLSHLALGLVGEGKMWSPKSGWADAKYVLEAHGLKPVILKPKEGLALINGTQMITSLGCEAVERASAIARQADIVAALTLEVLKGTTKAFDTDIHALRPHRGQIEVAFRFRSLLDSDHHPSEIAESHRFCDRVQDAYTLRCCPQVHGVVNDTIAFVKNIITTELNSATDNPMVFANRGETVSGGNFHGEYPAKALDYLAIGIHELAAISERRIERLCNPSLSELPAFLVAEGGLNSGFMIAHCTAAALVSENKALCHPSSVDSLSTSAATEDHVSMGGWAARKALRVIEHVEQVLAIELLAACQGIEFLRPLKTTTPLEKVYDLVRSVVRPWIKDRFMAPDIEAAHRLLLEQKVWEVAAPYIEKYRMEHIPESRPLSPTAFSLQFLHKKSTKIPESEDL
Turning to B1, the Km in data set [1] was found to be 7.5 mM; in data set [2], 9.8 mM; in data set [3], 5.3 mM; in [4] it was 3.1 mM; in data set [5], 12.8 mM; in [6], 4 mM. Also, the Km in data set [7] is 5.2 mM; in [8] it was 7.7 mM; in data set [9], 5.3 mM; in data set [10], 4 mM; in [11] it was 5.2 mM. For the same protein, the Vmax in data set [1] is 0.0214 IU mg-1; in data set [2], 0.87 IU mg-1; in [4], 0.00047 IU mg-1; in data set [5], 0.87 IU mg-1; in [7] it was 25 IU mg-1; in data set [8], 0.85 IU mg-1. Also, the Vmax was found to be 0.0047 IU mg-1 in [9] and 0.52 IU mg-1 in [10].

These data come from ChEMBL document CHEMBL1150982, “Formation of the Michaelis complex without involvement of the prosthetic group dehydroalanine of histidine ammonialyase” (Bioorg Med Chem Lett, 1997).
